Paper PMC3115021, “Dynamics of Cdk1 Substrate Specificity during the Cell Cycle” (Molecular Cell, 2011)

How the values were obtained:
Assay in all cases: Quantitative phosphorylation assay of T33-Sic1ΔC constructs and recombinant substrates
Format in all cases: biochemical
Settings in all cases: Table S2; purified protein substrate; relative values, not divided by [S]
Cln2-Cdk1 = molecular target: T1, Cln2-Cdk1 (Saccharomyces cerevisiae, UniProt P00546+P20438)
T1 construct: We purified the four cyclin-Cdk1 complexes from yeast; made in house; host or cells: S. cerevisiae strain DMY305 (galactose-induced); Cks1 from bacteria
Method: (§1) For the quantitative phosphorylation assays of T33-Sic1ΔC constructs and recombinant substrates, substrate concentrations were kept in the range of 0.5–2 μM (in the linear [S] versus v0 range, several-fold below the estimated KM value), and initial velocity conditions were defined as an initial substrate turnover of up to 10% of the total turnover. For the steady-state peptide kinetics of the Histone peptide PKTPKKAKKL, a similar assay composition was used as for protein substrates, and phosphocellulose paper was used for the quantification of the phosphorylated substrate. […]
(§2) similar substrate specificity as the Cln2-Cdk1 version purified using a TAP-tag. N-terminally 6His-tagged recombinant T33-Sic1ΔC constructs and substrates were cloned into the pET28a vector and purified by standard cobalt affinity chromatography and elution with 200 mM imidazole. 6His-Fin1 was purified as described previously (Woodbury and Morgan, 2007). Substrates cloned into the pGEX-4T-1 were purified on glutathione agarose columns using 5 mM reduced glutathione for elution. Cks1 was purified as described previously (Reynard et al., 2000). The optimal working concentration for purified Cks1 was taken as 500 nM based on optimization performed for cyclin-Cdk1 preparations and T33-Sic1ΔC as a substrate.
(§3) For the quantitative phosphorylation assays of T33-Sic1ΔC constructs and recombinant substrates, substrate concentrations were kept in the range of 0.5-2 μM (in the linear [S] vs v0 range, several-fold below the estimated KM value), and the initial velocity conditions were defined as an initial substrate turnover ranging up to 10% of the total turnover. The latter was estimated by a long-term incubation with excess amounts of cyclin-Cdk1 and 32P-γ-ATP in the standard reaction mixture given below. About 1-10 nM of purified kinase complex was used, reaction aliquots were taken at two or more time points, and the reaction was stopped by SDS-PAGE sample buffer. The relative kcat/KM values for the substrates were calculated as the ratio of v0/[S], which was determined from at least two independent experiments. The basal composition of the assay mixture contained 50 mM Hepes, pH 7.4, 100 mM NaCl, 0.1% NP-40, 20 mM imidazole, 0.1 mg/ml 2HA peptide, 2% glycerol, 2 mM EGTA, 0.2 mg/ml BSA, […], and 500 μM ATP (with added 32P-γ-ATP (Perkin Elmer)).
(§4) About 1-10 nM of purified kinase complex was used, reaction aliquots were taken at two or more time points, and the reaction was stopped by SDS-PAGE sample buffer. For the steady-state peptide kinetics of the Histone peptide PKTPKKAKKL, a similar assay composition was used as for protein substrates and the standard phosphocellulose method was applied for the quantification of the phosphorylated substrate (Loog and Morgan, 2005). Synthetic peptides as competitor agents were used in 4 mM final concentrations. […]

Clb3-Cdk1 = molecular target: T2, Clb3-Cdk1 (Saccharomyces cerevisiae, UniProt P00546+P24870)
T2 construct: We purified the four cyclin-Cdk1 complexes from yeast; made in house; host or cells: S. cerevisiae strain DOM0957 (gal-CLB3-TAP, sic1 deleted); Cks1 from bacteria
Method: as §1, §2, §3, §4

Clb5-Cdk1 = molecular target: T3, Clb5-Cdk1 (Saccharomyces cerevisiae, UniProt P00546+P30283)
T3 construct: We purified the four cyclin-Cdk1 complexes from yeast; made in house; host or cells: S. cerevisiae strain DOM0076 (gal-CLB5-TAP, sic1 deleted); Cks1 from bacteria
Method: as §1, §2, §3, §4

Clb2-Cdk1 = molecular target: T4, Clb2-Cdk1 (Saccharomyces cerevisiae, UniProt P00546+P24869)
T4 construct: We purified the four cyclin-Cdk1 complexes from yeast; made in house; host or cells: S. cerevisiae strain DOM0077 (gal-CLB2-TAP, sic1 deleted); Cks1 from bacteria
Method: as §1, §2, §3, §4

Clb3hpm-Cdk1 = molecular target: T5, Clb3hpm-Cdk1 (Saccharomyces cerevisiae, UniProt P00546+P24870)
T5 construct: made in house; host or cells: S. cerevisiae strain MK0168 (gal-CLB3hpm-TAP, sic1 deleted); Cks1 from bacteria
Method: (§5) For the quantitative phosphorylation assays of T33-Sic1ΔC constructs and recombinant substrates, substrate concentrations were kept in the range of 0.5–2 μM (in the linear [S] versus v0 range, several-fold below the estimated KM value), and initial velocity conditions were defined as an initial substrate turnover of up to 10% of the total turnover. For the steady-state peptide kinetics of the Histone peptide PKTPKKAKKL, a similar assay composition was used as for protein substrates, and phosphocellulose paper was used for the quantification of the phosphorylated substrate.
(§6) Supplemental Experimental Procedures
(§7) Plasmid constructs and yeast strains
(§8) For tandem affinity purification (TAP) of cyclin-Cdk1 complexes, the cyclin genes were cloned into the 2 micron vector pRSAB1234 containing a GAL1 promoter and the C-terminal TAP-tag. To purify different 6His-T33-Sic1ΔC forms for kinase assays, the C-terminally truncated fragment of Sic1 (with a stop codon inserted after amino acid 215) was cloned into the NheI/BamHI site of the bacterial expression vector pET28a (Invitrogen). Mutagenesis of cyclins or substrates was performed using single-stranded pRSAB1234 or pET28a vector constructs as templates. The triple mutants in the hydrophobic patch (hpm) of Clb5 and Clb2 were described previously (Loog and Morgan, 2005), and the hpm of Clb3 (Phe-201, Leu-205 and Trp-208 mutated to alanines) was designed according to sequence homology with other B-type cyclins. In T33-Sic1ΔC constructs, the other Cdk sites bearing the consensus motif S/T-P were mutated to Ala-Ala in order to prevent any possible (pseudo)substrate competition. The other Cdk substrates were cloned as full-length forms into bacterial expression vectors pET28a or pGEX-4T-1. Cdh1 was purified using the baculovirus system and was a kind gift from Monica Rodrigo-Brenni (UCSF). […]
The […]
(§9) pRSAB1234 analogously to the cyclin-Cdk1 complexes. For C-terminal tagging of cyclin genes in their chromosomal loci, the Pringle method was applied (Longtine et al., 1998). Lists of plasmid […]
(§10) The TAP method was applied for purification of cyclin-Cdk1 complexes and Swe1 as described previously for Clb5-TAP-Cdk1 and Clb2-TAP-Cdk1 (Puig et al., 2001; Ubersax et al., 2003). […]
as §2, with “tagged” for “similar substrate specificity as the Cln2-Cdk1 version purified using a TAP-tag. N-terminally 6His-tagged”
as §3
(§11) About 1-10 nM of purified kinase complex was used, reaction aliquots were taken at two or more […]

Clb5hpm-Cdk1 = molecular target: T6, Clb5hpm-Cdk1 (Saccharomyces cerevisiae, UniProt P00546)
T6 construct: made in house; host or cells: S. cerevisiae strain DOM0963 (gal-CLB5hpm-TAP, sic1 deleted); Cks1 from bacteria
Method: as §5, §6, §7, §8
The […]
as §9, §10
as §2, with “tagged” for “similar substrate specificity as the Cln2-Cdk1 version purified using a TAP-tag. N-terminally 6His-tagged”
as §3, §11

Clb2hpm-Cdk1 = molecular target: T7, Clb2hpm-Cdk1 (Saccharomyces cerevisiae, UniProt P00546)
T7 construct: made in house; host or cells: S. cerevisiae strain DOM0964 (gal-CLB2hpm-TAP, sic1 deleted); Cks1 from bacteria
Method: as §5, §6, §7, §8
The […]
as §9, §10
as §2, with “tagged” for “similar substrate specificity as the Cln2-Cdk1 version purified using a TAP-tag. N-terminally 6His-tagged”
as §3, §11

T6 sequence (P00546 2-298 limits assumed): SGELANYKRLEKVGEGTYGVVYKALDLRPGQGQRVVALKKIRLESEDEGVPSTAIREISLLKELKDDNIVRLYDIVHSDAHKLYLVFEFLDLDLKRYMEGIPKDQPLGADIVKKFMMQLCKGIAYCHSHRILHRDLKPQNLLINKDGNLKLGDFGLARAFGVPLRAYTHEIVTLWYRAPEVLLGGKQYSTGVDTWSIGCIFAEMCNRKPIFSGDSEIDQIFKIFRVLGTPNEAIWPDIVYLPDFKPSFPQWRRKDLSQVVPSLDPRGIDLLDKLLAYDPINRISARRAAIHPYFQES
T2 sequence (P00546 2-298 limits assumed): as above
T2 sequence (P24870 whole entry partner): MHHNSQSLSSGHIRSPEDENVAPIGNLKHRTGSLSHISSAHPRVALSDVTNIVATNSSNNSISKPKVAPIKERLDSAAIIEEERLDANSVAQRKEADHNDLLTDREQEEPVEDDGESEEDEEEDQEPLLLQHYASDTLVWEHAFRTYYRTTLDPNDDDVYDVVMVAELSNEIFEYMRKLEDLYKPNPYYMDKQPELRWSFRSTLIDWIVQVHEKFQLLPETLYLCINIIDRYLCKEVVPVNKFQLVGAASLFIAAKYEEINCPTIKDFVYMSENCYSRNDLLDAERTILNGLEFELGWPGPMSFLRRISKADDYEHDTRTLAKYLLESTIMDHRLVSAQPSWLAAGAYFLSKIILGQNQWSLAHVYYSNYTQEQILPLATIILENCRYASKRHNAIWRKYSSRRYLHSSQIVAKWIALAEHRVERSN
T2 sequence (P20486 whole entry partner): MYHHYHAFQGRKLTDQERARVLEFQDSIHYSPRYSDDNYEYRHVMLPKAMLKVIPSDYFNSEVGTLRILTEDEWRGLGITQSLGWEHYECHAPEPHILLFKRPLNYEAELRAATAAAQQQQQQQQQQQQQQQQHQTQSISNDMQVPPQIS
T7 sequence (P00546 2-298 limits assumed): as the sequence (P00546 2-298 limits assumed) above
T3 sequence (P00546 2-298 limits assumed): as above
T3 sequence (P30283 whole entry partner): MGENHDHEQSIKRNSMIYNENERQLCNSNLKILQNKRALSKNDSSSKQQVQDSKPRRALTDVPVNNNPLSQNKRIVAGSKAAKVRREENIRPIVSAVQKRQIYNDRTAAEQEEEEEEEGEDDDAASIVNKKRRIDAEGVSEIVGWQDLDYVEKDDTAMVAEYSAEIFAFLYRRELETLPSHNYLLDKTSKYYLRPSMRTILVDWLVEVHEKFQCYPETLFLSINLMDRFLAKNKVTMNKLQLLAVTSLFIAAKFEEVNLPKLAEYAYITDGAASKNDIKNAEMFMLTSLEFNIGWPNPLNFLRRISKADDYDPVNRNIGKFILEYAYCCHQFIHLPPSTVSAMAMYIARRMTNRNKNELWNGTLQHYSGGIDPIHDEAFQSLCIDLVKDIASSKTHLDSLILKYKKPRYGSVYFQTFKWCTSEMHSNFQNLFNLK
T3 sequence (P20486 whole entry partner): as the sequence (P20486 whole entry partner) above
T1 sequence (P00546 2-298 limits assumed): as the sequence (P00546 2-298 limits assumed) above
T1 sequence (P20438 whole entry partner): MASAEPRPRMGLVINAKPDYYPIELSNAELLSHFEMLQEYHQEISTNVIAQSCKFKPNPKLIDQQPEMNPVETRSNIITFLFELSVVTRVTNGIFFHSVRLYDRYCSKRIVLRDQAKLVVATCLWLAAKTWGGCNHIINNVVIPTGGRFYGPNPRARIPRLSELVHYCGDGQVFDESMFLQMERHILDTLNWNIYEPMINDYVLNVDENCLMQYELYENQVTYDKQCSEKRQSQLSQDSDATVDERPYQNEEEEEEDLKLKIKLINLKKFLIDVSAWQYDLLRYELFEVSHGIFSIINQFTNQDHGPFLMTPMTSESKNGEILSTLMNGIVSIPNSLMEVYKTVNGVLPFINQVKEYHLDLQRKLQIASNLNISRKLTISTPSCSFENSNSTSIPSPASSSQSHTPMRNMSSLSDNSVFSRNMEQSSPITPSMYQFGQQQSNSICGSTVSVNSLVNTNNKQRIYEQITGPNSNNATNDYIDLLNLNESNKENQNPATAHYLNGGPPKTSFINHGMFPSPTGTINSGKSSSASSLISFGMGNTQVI
T1 sequence (P20486 whole entry partner): as the sequence (P20486 whole entry partner) above
T4 sequence (P00546 2-298 limits assumed): as the sequence (P00546 2-298 limits assumed) above
T4 sequence (P24869 2-491 partner limits assumed): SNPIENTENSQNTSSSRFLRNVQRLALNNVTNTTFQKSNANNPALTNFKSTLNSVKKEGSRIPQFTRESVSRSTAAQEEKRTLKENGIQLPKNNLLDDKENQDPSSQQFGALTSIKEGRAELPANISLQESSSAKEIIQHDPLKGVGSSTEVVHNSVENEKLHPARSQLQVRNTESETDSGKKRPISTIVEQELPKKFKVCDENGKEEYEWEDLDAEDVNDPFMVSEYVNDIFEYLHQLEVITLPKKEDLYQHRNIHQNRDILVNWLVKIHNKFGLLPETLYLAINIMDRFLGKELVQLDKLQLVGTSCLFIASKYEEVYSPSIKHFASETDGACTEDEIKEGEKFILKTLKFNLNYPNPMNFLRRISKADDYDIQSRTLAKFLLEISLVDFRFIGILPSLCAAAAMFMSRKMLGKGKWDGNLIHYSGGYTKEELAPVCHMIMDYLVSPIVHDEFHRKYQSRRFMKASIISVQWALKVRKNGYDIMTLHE
T4 sequence (P20486 whole entry partner): as the sequence (P20486 whole entry partner) above

| Molecule | kcat/KM, Cln2 (Cln2-Cdk1) [relative units] | kcat/KM, Clb3 (Clb3-Cdk1) [relative units] | kcat/KM, Clb5 (Clb5-Cdk1) [relative units] | kcat/KM, Clb2 (Clb2-Cdk1) [relative units] | kcat/KM, Clb3hpm (Clb3hpm-Cdk1) [relative units] | kcat/KM, Clb5hpm (Clb5hpm-Cdk1) [relative units] | kcat/KM, Clb2hpm (Clb2hpm-Cdk1) [relative units] |
| --- | --- | --- | --- | --- | --- | --- | --- |
| ASH1: transcription factor, purified protein tested as Cdk1 substrate | 0.422 | 0.697 | 0.111 | 0.462 | 0.134 | 0.052 | 0.389 |
| Histone H1 [reference compound] | 1.394 | 2.237 | 0.605 | 4.900 | 1.957 | 0.427 | 4.287 |
| FIR1: purified yeast protein tested as Cdk1 substrate (protein, UniProt P40020 1-876, looked up) Factor interacting with REF2: MSLPVTPVKSKVCSTLSIQHEMDHDQCRDVLCPRENLLAINRTNNIESVAIPRQRSSKNKKPHEHTQSQVRFSIPDPNEISQDSPLKIVFPKSGNETERRMSTSSLLMNSHGHLVDMHSKILVDVPKEVWKFHHNRRKKCESRHRKTRSDVRSNTSSSGKEPNHSRSKSLQSIIVDTMNTYRATEVETSINENTSNISQVSPLNLSFDRPPPLTPEKNLYLTPESPLNRYHLPVPLEISLPPYLSPQNKDKKRSSLVYDGDGYSQFQEGNTSSSTESSLEQPSSSYSDEDDSIPYAHHDVSFELNNADADKLLGIDENANVNLKIQRRNLKNPQHIKSKTDRECEEKNTEKNVSLKILSTPNKLIDIPDLEHMKSPPSTGLNGTLKFFQQFEPSEEPTSPTRQVNPESLDKLDMSFKFPSSTTNNNVDKVHENRNSGDTNNEDFLKVDTSPVNQSFESRRQMLIDLQKSPTNNNPRIHKHRRSRSVHNIDDISLNFEATSTPPAPTSAPSIPVEHSNPCTSIEIPKRSPLRFTSSPKTSDIPPEAQSPKNGSFLQEISVPSIQIIPDESISHTREPSPSLIECPEDENEAFSTEVADHSIAIISETKSVPSIEPFKPLSSFNSFGQEIQNKEPTPLNQTPTDLIGKQRNCVNPHSIPFSVLSSNSQSSQSGSSKSSYNSEFSSNTAITDTTSQPSVTINRSTLEHNFIEEKRSIKNLGHGPPSQKNNYSFPRNKNTPSNRHDLDFNTIYEKRDGKMVEVILLDEDEDVGLKNNDISRTRVCHAQKAKNEQQKKRLSHCNEILGMCDKTADDAKRIIYQLVNEKHKFSEKGQQTKPKKSRVLPPLPFPLYDEKGNSLIPNKYQSSIHNDIPSHRKLK | 0.042 | 0.223 | 0.032 | 0.836 | 0.017 | 0.008 | 0.111 |
| NDD1: component of the transcription factor complex controlling G2/M-specific genes, tested as Cdk1 substrate (protein, UniProt Q08887 1-554, looked up) Nuclear division defective …: MDRDISYQQNYTSTGATATSSRQPSTDNNADTNFLKVMSEFKYNFNSPLPTTTQFPTPYSSNQYQQTQDHFANTDAHNSSSNESSLVENSILPHHQQIQQQQQQQQQQQQQQQALGSLVPPAVTRTDTSETLDDINVQPSSVLQFGNSLPSEFLVASPEQFKEFLLDSPSTNFNFFHKTPAKTPLRFVTDSNGAQQSTTENPGQQQNVFSNVDLNNLLKSNGKTPSSSCTGAFSRTPLSKIDMNLMFNQPLPTSPSKRFSSLSLTPYGRKILNDVGTPYAKALISSNSALVDFQKARKDITTNATSIGLENANNILQRTPLRSNNKKLFIKTPQDTINSTSTLTKDNENKQDIYGSSPTTIQLNSSITKSISKLDNSRIPLLASRSDNILDSNVDDQLFDLGLTRLPLSPTPNCNSLHSTTTGTSALQIPELPKMGSFRSDTGINPISSSNTVSFKSKSGNNNSKGRIKKNGKKPSKFQIIVANIDQFNQDTSSSSLSSSLNASSSAGNSNSNVTKKRASKLKRSQSLLSDSGSKSQARKSCNSKSNGNLFNSQ | 0.143 | 2.121 | 0.388 | 3.129 | 0.222 | 0.096 | 1.108 |
